Results on one molecule are retold here after US20070031511A1, “Method of treatment” (priority 2003, published 2007).

The nature of the assay: Quenching of peptide tryptophan fluorescence by ferric ions (stoichiometry, apparent Kd). Type of assay: binding. As to conditions: 10 mM sodium acetate pH 4.0, 100 mM NaCl, 0.005% Tween 20; mean ± S.E.; read-out: Kd (μM), apparent dissociation constant for ferric ions. The method, then:
The tryptophan fluorescence of peptide solutions was measured in 3 mL quartz cuvettes thermostated at […], with a Spex Fluorolog-2 spectrofluorimeter (Spex Industries, Edison, N.J.), with the excitation and emission wavelengths set at 290 and 345 nm, respectively. The quenching of tryptophan fluorescence induced by the binding of metal ions was used to calculate the fraction of binding sites occupied, fa: fa=(yf−y)/(yf−yb) where y is the fluorescence signal at a given concentration of metal ions and yb and yf are the signals when the binding sites are fully occupied and unoccupied, respectively (Winzor et al, 1995). […]
The tryptophan fluorescence of progastrin6-80, glycine-extended gastrin17 and related peptides was measured in the presence of increasing concentrations of ferric ions in 10 mM sodium acetate, pH 4.0, 100 mM NaCl, 0.005% Tween 20. […]
The tryptophan fluorescence of amidated gastrin17 and related peptides was measured in the presence of increasing concentrations of ferric ions at pH 4.0 (8). […]

B1: Progastrin: recombinant human progastrin6-80 (protein, listed as Homo sapiens)
chain: SQQPDAPLGTGANRDLELPWLEQQGPASHHRRQLGPQGPPHLVADPSKKQGPWLEEEEEAYGWMDFGRRSAEDEN
In the case of B1, the Kd was 2.15 ± 0.14 µM.
